Assay results from paper PMC11417369, “DNA sequence and chromatin differentiate sequence-specific transcription factor binding in the human malaria parasite Plasmodium falciparum”.

T1: AP2-LT D1 (Plasmodium falciparum, UniProt Q8IAM1 2520-2577)
T1 sequence: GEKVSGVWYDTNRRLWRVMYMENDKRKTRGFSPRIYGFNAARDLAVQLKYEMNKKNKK


Target: T1, AP2-LT D1
Experiment: gcPBM; about 25 ug protein; PBS, 1% milk, 0.2 mg/ml BSA, salmon testes DNA, 0.03% Triton X-100
Settings: tags: N-terminal GST (pGEX-4T-1), kept; label: surface-attached array probe

Row | Binder | binding signal
1 | CACACA_site5033 (dsDNA) DNA 1: TCATAGTATGGACACACACACACACCCATATATATA DNA 2: TATATATATGGGTGTGTGTGTGTGTCCATACTATGA | 10.2 ln median PBM intensity, better of two orientations
2 | CACACA_site8035 (dsDNA) DNA 1: TAAGTATACACATACACACACACACTAATAAAAAAA DNA 2: TTTTTTTATTAGTGTGTGTGTGTATGTGTATACTTA | 10.2 ln median PBM intensity, better of two orientations
3 | CACACA_site8234 (dsDNA) DNA 1: CTATTTCATAAACACACACACACAAACAAACATATA DNA 2: TATATGTTTGTTTGTGTGTGTGTGTTTATGAAATAG | 10.2 ln median PBM intensity, better of two orientations
4 | CACACA_site5977 (dsDNA) DNA 1: AATGACAACCTTGTCACACATATATATATATATATA DNA 2: TATATATATATATATATGTGTGACAAGGTTGTCATT | 10.2 ln median PBM intensity, better of two orientations
5 | CACACA_site9270 (dsDNA) DNA 1: AAAAAAAAAAAATATACACACACACCGACACATAAA DNA 2: TTTATGTGTCGGTGTGTGTGTATATTTTTTTTTTTT | 10.2 ln median PBM intensity, better of two orientations
6 | CACACA_site7828 (dsDNA) DNA 1: TATATAAATAGACACACACACACCTTATAATTACTA DNA 2: TAGTAATTATAAGGTGTGTGTGTGTCTATTTATATA | 10.2 ln median PBM intensity, better of two orientations
7 | CACACA_site3390 (dsDNA) DNA 1: ACAAAATAAAAACACACACACAAACACAAAAAAATA DNA 2: TATTTTTTTGTGTTTGTGTGTGTGTTTTTATTTTGT | 10.1 ln median PBM intensity, better of two orientations
8 | CACACA_site8266 (dsDNA) DNA 1: TATGCATATACACAAGCACACATATATATATATATA DNA 2: TATATATATATATATGTGTGCTTGTGTATATGCATA | 10.1 ln median PBM intensity, better of two orientations
9 | CACACA_site4429 (dsDNA) DNA 1: TAAACATACAGATACACACACACACCCACAGAGACA DNA 2: TGTCTCTGTGGGTGTGTGTGTGTATCTGTATGTTTA | 10.1 ln median PBM intensity, better of two orientations
10 | CACACA_site2539 (dsDNA) DNA 1: TATATATAGAAACACACACACACATATATATATATT DNA 2: AATATATATATATGTGTGTGTGTGTTTCTATATATA | 10.1 ln median PBM intensity, better of two orientations
11 | CACACA_site5591 (dsDNA) DNA 1: ATAATATAAACATACACACACACATATATATATATA DNA 2: TATATATATATATGTGTGTGTGTATGTTTATATTAT | 10.1 ln median PBM intensity, better of two orientations
12 | CACACA_site4294 (dsDNA) DNA 1: TTTATTAATGGACACACACACACACCCAAAATAAAA DNA 2: TTTTATTTTGGGTGTGTGTGTGTGTCCATTAATAAA | 10.1 ln median PBM intensity, better of two orientations
13 | CACACA_site9096 (dsDNA) DNA 1: TCATAAATTAAACACACACACACATCTGGATACCCC DNA 2: GGGGTATCCAGATGTGTGTGTGTGTTTAATTTATGA | 10.1 ln median PBM intensity, better of two orientations
14 | CACACA_site242 (dsDNA) DNA 1: TTTATTAAGAAACACACACACACACCCAAAATAAAA DNA 2: TTTTATTTTGGGTGTGTGTGTGTGTTTCTTAATAAA | 10.1 ln median PBM intensity, better of two orientations
15 | CACACA_site3391 (dsDNA) DNA 1: AAAAAAAAAAAAAACACACATACACGCCCACCCATA DNA 2: TATGGGTGGGCGTGTATGTGTGTTTTTTTTTTTTTT | 10.1 ln median PBM intensity, better of two orientations
16 | CACACA_site8278 (dsDNA) DNA 1: GTAACATACACATATACACACACACCGATATACATA DNA 2: TATGTATATCGGTGTGTGTGTATATGTGTATGTTAC | 10 ln median PBM intensity, better of two orientations

Row | Binder | binding signal
17 | CACACA_site452 (dsDNA) DNA 1: CACAAAGACACAAACACACACACACCCACATACATA DNA 2: TATGTATGTGGGTGTGTGTGTGTTTGTGTCTTTGTG | 10 ln median PBM intensity, better of two orientations
18 | CACACA_site2423 (dsDNA) DNA 1: GTGCATAAATCATACACACACACATATATATATATA DNA 2: TATATATATATATGTGTGTGTGTATGATTTATGCAC | 10 ln median PBM intensity, better of two orientations
19 | CACACA_site6577 (dsDNA) DNA 1: AGCAACCCCCTAGCTACACACATATAGATATAAATA DNA 2: TATTTATATCTATATGTGTGTAGCTAGGGGGTTGCT | 9.99 ln median PBM intensity, better of two orientations
20 | CACACA_site7437 (dsDNA) DNA 1: AGATAAAAAAAGTACACACACACATATATTTATATA DNA 2: TATATAAATATATGTGTGTGTGTACTTTTTTTATCT | 9.98 ln median PBM intensity, better of two orientations
21 | CACACA_site8822 (dsDNA) DNA 1: ATTATGCACCAACACACACACACACTCCTAAAAAAT DNA 2: ATTTTTTAGGAGTGTGTGTGTGTGTTGGTGCATAAT | 9.97 ln median PBM intensity, better of two orientations
22 | CACACA_site5592 (dsDNA) DNA 1: AATATAAACAAACACACACACATATATATATATATT DNA 2: AATATATATATATATGTGTGTGTGTTTGTTTATATT | 9.96 ln median PBM intensity, better of two orientations
23 | CACACA_site7896 (dsDNA) DNA 1: TATACATACATACATACACACACACCGATATATATA DNA 2: TATATATATCGGTGTGTGTGTATGTATGTATGTATA | 9.94 ln median PBM intensity, better of two orientations
24 | CACACA_site8541 (dsDNA) DNA 1: AAGTACATACATAAAACACACACATATATATATATA DNA 2: TATATATATATATGTGTGTGTTTTATGTATGTACTT | 9.93 ln median PBM intensity, better of two orientations
25 | CACACA_site126 (dsDNA) DNA 1: ACGATATTTTTGGTGACACACATATATATATATATA DNA 2: TATATATATATATATGTGTGTCACCAAAAATATCGT | 9.9 ln median PBM intensity, better of two orientations
26 | CACACA_site5583 (dsDNA) DNA 1: ATTAAATACATTAACACACACACAAATAAATACATA DNA 2: TATGTATTTATTTGTGTGTGTGTTAATGTATTTAAT | 9.88 ln median PBM intensity, better of two orientations
27 | CACACA_site1192 (dsDNA) DNA 1: AAAAATACCTTATATATACACACTATGTTTTTCTTT DNA 2: AAAGAAAAACATAGTGTGTATATATAAGGTATTTTT | 9.31 ln median PBM intensity, better of two orientations
28 | CACACA_site6367 (dsDNA) DNA 1: AATATCTTAGTGGATACACACATATAAATGTGTATT DNA 2: AATACACATTTATATGTGTGTATCCACTAAGATATT | 9.32 ln median PBM intensity, better of two orientations
29 | CACACA_site4472 (dsDNA) DNA 1: TTTGAATCCTTATATACACACATTATATAATATTAT DNA 2: ATAATATTATATAATGTGTGTATATAAGGATTCAAA | 9.33 ln median PBM intensity, better of two orientations
30 | CACACA_site2459 (dsDNA) DNA 1: ACCTAAGAACTATTTACACACATATACAAAATATAT DNA 2: ATATATTTTGTATATGTGTGTAAATAGTTCTTAGGT | 9.34 ln median PBM intensity, better of two orientations
31 | CACACA_site262 (dsDNA) DNA 1: ATTATGTATACATAAACACACATATATATAAAAAAA DNA 2: TTTTTTTATATATATGTGTGTTTATGTATACATAAT | 9.35 ln median PBM intensity, better of two orientations
32 | CACACA_site2004 (dsDNA) DNA 1: AAAATGTGCCCACGCGTACACACAAAAAAAGAAAAA DNA 2: TTTTTCTTTTTTTGTGTGTACGCGTGGGCACATTTT | 9.36 ln median PBM intensity, better of two orientations
